In article PMC7925462, “A synthetic peptide as an allosteric inhibitor of human arginase I and II” (Molecular Biology Reports, 2021):
Ends that are not written are not given here.

T1: human arginase I (hargI) (Homo sapiens, UniProt P05089)
T1 construct: TEV protease site and linker (N); made in house; host or cells: E. coli BL21 (DE3) RIL
T1 sequence (P05089 with tags, fused parts or gaps): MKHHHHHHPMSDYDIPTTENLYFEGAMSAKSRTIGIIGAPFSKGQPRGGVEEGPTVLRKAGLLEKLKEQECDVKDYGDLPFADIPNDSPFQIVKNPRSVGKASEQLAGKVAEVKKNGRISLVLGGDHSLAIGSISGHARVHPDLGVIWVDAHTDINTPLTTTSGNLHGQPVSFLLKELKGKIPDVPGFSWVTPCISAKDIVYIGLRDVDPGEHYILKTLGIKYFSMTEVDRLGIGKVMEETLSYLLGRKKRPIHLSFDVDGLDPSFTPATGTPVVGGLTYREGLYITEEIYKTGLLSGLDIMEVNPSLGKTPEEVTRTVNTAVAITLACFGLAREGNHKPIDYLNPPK

T2: human arginase II (hargII) (Homo sapiens, UniProt P78540)
T2 construct: The human arginase II (aa23-354, 38.3kD) fused to a His6-tag at the N-terminal; purchased USBiological Life Science, Salem, USA
T2 sequence (P78540 23-354): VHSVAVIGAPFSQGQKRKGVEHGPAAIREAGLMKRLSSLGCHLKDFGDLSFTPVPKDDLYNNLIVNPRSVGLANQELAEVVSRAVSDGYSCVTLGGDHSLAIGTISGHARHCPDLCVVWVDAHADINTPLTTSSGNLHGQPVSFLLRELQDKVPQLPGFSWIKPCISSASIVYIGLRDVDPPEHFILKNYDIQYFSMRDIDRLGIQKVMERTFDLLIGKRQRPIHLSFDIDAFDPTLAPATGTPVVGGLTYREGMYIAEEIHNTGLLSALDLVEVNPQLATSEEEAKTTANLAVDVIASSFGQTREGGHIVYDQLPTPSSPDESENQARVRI

T3: human arginase I (human, UniProt P05089 1-322, RED-tris-NTA dye on the His6-tag (Monolith His-Tag Labeling Kit RED-tris-NTA) in the MST assay)
T3 construct: human arginase I, full-length gene amplified from a commercial template plasmid (dnasu.org), cloned in pETM11; His6-tag and TEV protease site at the N-terminus; A TEV protease site lies between the His6-tag and the protein; no cleavage is described; also called hargI; hArg1; source: E. coli BL21 (DE3) RIL, purified (Ni-NTA, SEC); not shown: His6, N-terminal, kept
T3 sequence (looked up): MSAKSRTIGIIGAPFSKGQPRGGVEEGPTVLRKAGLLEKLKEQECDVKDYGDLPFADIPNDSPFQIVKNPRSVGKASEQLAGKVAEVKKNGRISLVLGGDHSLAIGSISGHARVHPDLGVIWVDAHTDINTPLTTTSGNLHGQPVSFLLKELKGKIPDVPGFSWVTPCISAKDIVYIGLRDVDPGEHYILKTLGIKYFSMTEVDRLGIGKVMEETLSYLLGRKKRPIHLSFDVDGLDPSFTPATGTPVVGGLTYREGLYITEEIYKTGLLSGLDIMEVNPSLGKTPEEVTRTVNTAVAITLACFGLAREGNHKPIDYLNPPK

T4: human arginase II (aa23-354, 38.3kD) (human, UniProt P78540 23-354, RED-tris-NTA dye labeled in the MST assay)
T4 construct: human arginase II, aa23-354, 38.3kD, fused to a His6-tag at the N-terminal; also called hargII; source: bought: USBiological Life Science, Salem, USA; not shown: His6, N-terminal, kept
T4 sequence (looked up): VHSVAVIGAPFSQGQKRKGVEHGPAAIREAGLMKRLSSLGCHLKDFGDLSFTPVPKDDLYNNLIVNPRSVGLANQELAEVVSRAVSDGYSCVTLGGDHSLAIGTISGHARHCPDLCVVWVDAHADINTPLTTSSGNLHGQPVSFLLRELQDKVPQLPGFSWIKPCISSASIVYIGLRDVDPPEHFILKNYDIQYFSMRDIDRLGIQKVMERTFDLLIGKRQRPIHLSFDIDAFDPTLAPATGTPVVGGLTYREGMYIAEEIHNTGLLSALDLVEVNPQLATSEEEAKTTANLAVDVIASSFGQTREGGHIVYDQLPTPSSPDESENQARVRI


Legend:
human arginase I (hargI) [1] = molecular target: T1, human arginase I (hargI); assay: Kinetic assay of L-arginine metabolism in absence/presence of peptide; type: biochemical; settings: 1 mM peptide REGNH, 40 mM L-arginine
Protocol: The kinetic properties of hargI and II were tested according to previously reported methods with minor modifications. The Arginases activity was assessed by colorimetric measurement of produced urea. The assays were performed in 96-well plates (Greiner) using Assay buffer [100 mM Na-phosphate pH 7.4, 130 mM NaCl]. Final volume of each reaction was 60 μl, the final concentration of hargI and hargII was 50 nM in each well. Samples containing no hargI or hargII were used as negative control. The peptide inhibitor was added based on experiment setting, dose ranging from 20 mM to 9.8 μM. Each sample was pre-incubated for 30 min in a 37 °C shaking incubator (100 rpm) and the reactions were started by adding concentrated substrate buffer [Assay buffer supplemented with 100 mM L-arginine, 500 mM Glycine and 1.25 mM MnCl2]. Reactions were performed in a shaking incubator at 37 °C and quenched after 1 h using a Stop mix. The Stop mix consisted of two volumes of freshly prepared solution A [Antipyrine/ H2SO4 reagent: 5 g/L of antipyrine(1,5-dimethyl-2-phenyl-3-pyrazolone) in 50%(v/v) sulfuric acid] and one volume solution B [Oxime reagent: 0.8 g 2,3-Butanedione monoxime in 100 ml of 5%(v/v) acetic acid]. […] The color turns to brown and changes in optical density (OD) at 466 nm reflecting the production of urea were quantified using the Synergy H1 Hybrid Reader (BioTek). […]

[2] = molecular target: T2, human arginase II (hargII); assay: Enzymatic assay, L-arginine hydrolysis by hargII, colorimetric urea; type: biochemical; settings: called preliminary data, read-out: IC50 (abstract)
Protocol: The human arginase II (aa23-354, 38.3kD) fused to a His6-tag at the N-terminal was purchased and supplied as a liquid aliquot (20 mM Tris-HCl, pH 8.0, 10% (v/v) glycerol) at −20 °C (USBiological Life Science, Salem, USA). This stock was thaw on ice, followed by high speed centrifuging before diluting to certain concentration for activity assay.
The kinetic properties of hargI and II were tested according to previously reported methods with minor modifications. The Arginases activity was assessed by colorimetric measurement of produced urea. The assays were performed in 96-well plates (Greiner) using Assay buffer [100 mM Na-phosphate pH 7.4, 130 mM NaCl]. Final volume of each reaction was 60 μl, the final concentration of hargI and hargII was 50 nM in each well. Samples containing no hargI or hargII were used as negative control. The peptide inhibitor was added based on experiment setting, dose ranging from 20 mM to 9.8 μM. Each sample was pre-incubated for 30 min in a 37 °C shaking incubator (100 rpm) and the reactions were started by adding concentrated substrate buffer [Assay buffer supplemented with 100 mM L-arginine, 500 mM Glycine and 1.25 mM MnCl2]. […] The color turns to brown and changes in optical density (OD) at 466 nm reflecting the production of urea were quantified using the Synergy H1 Hybrid Reader (BioTek).

human arginase I (hargI) [3] = molecular target: T1, human arginase I (hargI); assay: Enzymatic assay, L-arginine hydrolysis by hargI, colorimetric urea; type: biochemical; settings: called preliminary data, read-out: IC50 (abstract)
Protocol: The kinetic properties of hargI and II were tested according to previously reported methods with minor modifications. The Arginases activity was assessed by colorimetric measurement of produced urea. The assays were performed in 96-well plates (Greiner) using Assay buffer [100 mM Na-phosphate pH 7.4, 130 mM NaCl]. Final volume of each reaction was 60 μl, the final concentration of hargI and hargII was 50 nM in each well. Samples containing no hargI or hargII were used as negative control. The peptide inhibitor was added based on experiment setting, dose ranging from 20 mM to 9.8 μM. Each sample was pre-incubated for 30 min in a 37 °C shaking incubator (100 rpm) and the reactions were started by adding concentrated substrate buffer [Assay buffer supplemented with 100 mM L-arginine, 500 mM Glycine and 1.25 mM MnCl2]. Reactions were performed in a shaking incubator at 37 °C and quenched after 1 h using a Stop mix. The Stop mix consisted of two volumes of freshly prepared solution A [Antipyrine/ H2SO4 reagent: 5 g/L of antipyrine(1,5-dimethyl-2-phenyl-3-pyrazolone) in 50%(v/v) sulfuric acid] and one volume solution B [Oxime reagent: 0.8 g 2,3-Butanedione monoxime in 100 ml of 5%(v/v) acetic acid]. […] The color turns to brown and changes in optical density (OD) at 466 nm reflecting the production of urea were quantified using the Synergy H1 Hybrid Reader (BioTek).

human arginase I [4] = molecular target: T3, human arginase I; assay: MST; Monolith NT.115; His6-tagged arginase labeled with RED-tris-NTA at 50 nM, peptide REGNH titrated in 1:1 dilution; 25 mM Tris-HCl pH 7.5, 125 mM NaCl, 1% glycerol, 1 mM BME, 0.05% Tween-20; 10 min incubation at room temperature; triplicate; settings: both partners purified
[5] = molecular target: T4, human arginase II (aa23-354, 38.3kD); assay: as above; settings: both partners purified
human arginase I [6] = molecular target: T3, human arginase I; assay: cell-based or functional assay
[7] = molecular target: T4, human arginase II (aa23-354, 38.3kD); assay: cell-based or functional assay

lowering of activity with respect to apo-enzyme (human arginase I (hargI) [1]) | IC50 [2] [mM] | IC50 (human arginase I (hargI) [3]) [mM] | Kd (human arginase I [4]) [mM] | Kd [5] [mM] | inhibition of hargI enzymatic activity (colorimetric measurement of urea from L-arginine), peptide 9.8 μM to 20 mM; IC50 (human arginase I [6]) [mM] | inhibition of hargII enzymatic activity (colorimetric measurement of urea from L-arginine), peptide 9.8 μM to 20 mM; IC50 [7] [mM] | Molecule
≈ 15% | 1.8 ± 0.1 | 2.4 ± 0.3 | – | – | – | – | REGNH [REGNH]
– | – | – | 0.177 ± 0.05 | 0.196 ± 0.025 | 2.4 | 1.8 | REGNH (residues 308-312 of human arginase I, part of the S-shape motif of the C-terminal; Nothing is said of modified ends; also called peptide analogue; REGNH C-terminus analogue peptide; source: synthetic peptide; bought: Biomatik and TopPeptides, Shanghai) [synthetic peptide REGNH]
